Two molecules from patent US20120258041A1 (published 2012) can be followed below.

For one experiment, the target named is human iC3b (human) (UniProt P01024). In words: sandwich ELISA: chicken anti-C3 capture antibody, captured antigen, A209 as detecting antibody, goat anti-mouse-HRP, ABTS. A general note: An ELISA detects its analyte on a solid surface through an enzyme-linked reagent.
For the next experiment, the target named is T1, murine iC3b (mouse, UniProt P01027 25-1663, limits assumed).
T1 construct: Native material from a mixture of two mouse sera; the capture antibody also takes C3b and C3c; also called mouse iC3b
T1 sequence (P01027 25-1663 limits assumed): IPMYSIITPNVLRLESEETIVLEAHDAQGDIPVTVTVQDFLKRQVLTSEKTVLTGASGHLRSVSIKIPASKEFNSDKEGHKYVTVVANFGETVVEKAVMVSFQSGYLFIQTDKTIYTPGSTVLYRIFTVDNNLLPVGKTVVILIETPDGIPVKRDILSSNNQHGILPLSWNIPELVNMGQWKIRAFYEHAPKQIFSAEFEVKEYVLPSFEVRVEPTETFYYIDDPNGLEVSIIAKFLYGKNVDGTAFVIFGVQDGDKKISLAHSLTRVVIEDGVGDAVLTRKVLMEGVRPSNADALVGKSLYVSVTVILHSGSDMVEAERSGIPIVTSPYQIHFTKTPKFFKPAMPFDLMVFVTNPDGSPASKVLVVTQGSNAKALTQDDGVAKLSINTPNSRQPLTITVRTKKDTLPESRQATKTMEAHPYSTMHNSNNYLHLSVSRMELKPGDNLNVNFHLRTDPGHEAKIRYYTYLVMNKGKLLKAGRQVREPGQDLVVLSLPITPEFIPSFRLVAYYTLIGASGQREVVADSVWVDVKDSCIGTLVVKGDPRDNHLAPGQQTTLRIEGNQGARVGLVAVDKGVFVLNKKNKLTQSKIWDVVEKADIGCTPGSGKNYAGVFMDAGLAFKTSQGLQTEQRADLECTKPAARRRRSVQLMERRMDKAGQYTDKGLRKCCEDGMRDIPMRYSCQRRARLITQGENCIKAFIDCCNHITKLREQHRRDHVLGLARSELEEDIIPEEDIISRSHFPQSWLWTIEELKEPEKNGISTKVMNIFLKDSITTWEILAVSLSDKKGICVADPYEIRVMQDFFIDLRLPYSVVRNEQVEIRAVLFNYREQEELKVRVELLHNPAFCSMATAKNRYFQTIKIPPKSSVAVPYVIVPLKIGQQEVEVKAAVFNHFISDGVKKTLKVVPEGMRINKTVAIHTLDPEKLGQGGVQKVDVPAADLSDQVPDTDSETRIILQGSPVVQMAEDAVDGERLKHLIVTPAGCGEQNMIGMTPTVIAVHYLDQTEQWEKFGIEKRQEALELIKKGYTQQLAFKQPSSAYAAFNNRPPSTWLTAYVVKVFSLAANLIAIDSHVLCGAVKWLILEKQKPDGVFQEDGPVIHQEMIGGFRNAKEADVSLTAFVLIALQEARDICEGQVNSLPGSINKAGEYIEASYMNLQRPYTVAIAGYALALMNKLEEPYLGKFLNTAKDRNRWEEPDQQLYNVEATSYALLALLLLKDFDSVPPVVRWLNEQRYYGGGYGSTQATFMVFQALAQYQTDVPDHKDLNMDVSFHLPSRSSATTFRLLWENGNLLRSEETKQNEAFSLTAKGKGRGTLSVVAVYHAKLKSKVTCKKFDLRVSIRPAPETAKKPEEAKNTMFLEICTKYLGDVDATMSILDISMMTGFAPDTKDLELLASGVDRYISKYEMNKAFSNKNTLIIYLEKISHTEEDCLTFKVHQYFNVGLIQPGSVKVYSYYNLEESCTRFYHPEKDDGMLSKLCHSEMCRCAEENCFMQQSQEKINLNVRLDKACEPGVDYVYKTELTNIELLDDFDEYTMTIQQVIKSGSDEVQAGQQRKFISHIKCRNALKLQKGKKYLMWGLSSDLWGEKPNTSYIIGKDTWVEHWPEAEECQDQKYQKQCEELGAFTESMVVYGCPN
Kind of experiment: sandwich ELISA: rat mAb 2/11 (anti-mouse C3b/iC3b/C3c) capture, mouse serum 1:25 as antigen source, biotinylated antibody, streptavidin-HRP, ABTS, read at 405 nm.

Chain of human iC3b (human) (P01024 23-667 limits assumed, chain 1 of 3): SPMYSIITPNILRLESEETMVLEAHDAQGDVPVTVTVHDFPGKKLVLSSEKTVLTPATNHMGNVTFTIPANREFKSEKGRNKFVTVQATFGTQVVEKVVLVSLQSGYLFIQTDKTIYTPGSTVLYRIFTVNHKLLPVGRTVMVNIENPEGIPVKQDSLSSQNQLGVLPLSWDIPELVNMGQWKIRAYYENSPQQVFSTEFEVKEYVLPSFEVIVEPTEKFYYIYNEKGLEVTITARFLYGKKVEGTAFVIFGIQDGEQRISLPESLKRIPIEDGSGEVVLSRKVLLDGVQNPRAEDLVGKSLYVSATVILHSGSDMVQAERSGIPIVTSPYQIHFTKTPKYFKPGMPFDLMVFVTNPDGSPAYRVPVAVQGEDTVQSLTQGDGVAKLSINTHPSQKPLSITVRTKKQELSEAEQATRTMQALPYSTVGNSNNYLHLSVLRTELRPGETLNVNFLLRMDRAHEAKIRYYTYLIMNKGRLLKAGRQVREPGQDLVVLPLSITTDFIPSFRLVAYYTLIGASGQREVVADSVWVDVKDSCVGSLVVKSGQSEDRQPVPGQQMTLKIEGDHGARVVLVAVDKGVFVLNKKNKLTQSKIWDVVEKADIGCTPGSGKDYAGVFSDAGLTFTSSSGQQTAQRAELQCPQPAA
Chain of human iC3b (human) (P01024 749-1303 limits assumed, chain 2 of 3): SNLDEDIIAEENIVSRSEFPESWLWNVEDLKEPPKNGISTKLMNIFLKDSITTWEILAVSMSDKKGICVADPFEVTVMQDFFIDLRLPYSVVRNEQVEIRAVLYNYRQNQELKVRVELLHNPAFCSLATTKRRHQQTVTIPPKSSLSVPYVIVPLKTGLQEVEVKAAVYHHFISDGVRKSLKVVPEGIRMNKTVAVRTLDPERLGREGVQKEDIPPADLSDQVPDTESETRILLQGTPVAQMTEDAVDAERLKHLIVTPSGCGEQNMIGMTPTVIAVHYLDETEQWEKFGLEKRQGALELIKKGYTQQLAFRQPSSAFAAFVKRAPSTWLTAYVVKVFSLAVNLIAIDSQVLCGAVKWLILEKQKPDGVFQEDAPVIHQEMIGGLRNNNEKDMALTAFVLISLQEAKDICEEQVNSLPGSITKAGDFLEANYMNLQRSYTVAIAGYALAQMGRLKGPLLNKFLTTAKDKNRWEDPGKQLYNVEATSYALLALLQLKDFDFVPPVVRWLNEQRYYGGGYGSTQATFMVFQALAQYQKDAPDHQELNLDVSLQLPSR
Chain of human iC3b (human) (P01024 1321-1663 limits assumed, chain 3 of 3): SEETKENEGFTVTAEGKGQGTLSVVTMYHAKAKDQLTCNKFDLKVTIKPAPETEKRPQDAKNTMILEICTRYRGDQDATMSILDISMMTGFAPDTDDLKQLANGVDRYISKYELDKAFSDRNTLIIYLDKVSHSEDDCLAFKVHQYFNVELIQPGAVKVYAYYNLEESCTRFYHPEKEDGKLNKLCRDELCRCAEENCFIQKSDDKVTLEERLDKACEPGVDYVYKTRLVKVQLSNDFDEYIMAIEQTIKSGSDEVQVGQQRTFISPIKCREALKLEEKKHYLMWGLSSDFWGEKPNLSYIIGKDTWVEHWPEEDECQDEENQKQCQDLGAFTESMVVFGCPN

By EC50 (read off the curve) is commonly meant the concentration at which the effect is half-maximal. In turn, “A209 antibody (Quidel), mouse anti-human iC3b monoclonal antibody” gave an EC50 (read off the curve) in the experiment with human iC3b (human) of 0.03 µg/mL.

B1: mouse monoclonal antibody 5D2 (antibody, V domains shown)
VH: EVQLQQSGPELVKPGASVKISCKASGYTFTDNYYMNWVKQSHGKSLEWIGHIYPNNGVTSYNQKFRGKATLTVDKSSNSAYMELRSLTSEDSALYYCARNKLLSLYWYFDVWGTGTSVTVSS
VL: DIQMTQSSSSFSVFLGDRITITCRASVDIYNRLAWFQQKPGNAPRLLISGATSLATGVPSRFSGSGSGKDYTLSITSLQTEDVTIYYCQQYWSTPWTFGGGTKLEIKR
For B1, the “EC50 (read off the curve)” value with murine iC3b is about 20 nM.
